Laboratory results: article PMC6874086
Read-outs that look alike come from different tables or passages of the source.

Experiments:
VPS4A/B [1] = molecular target: VPS4A/B (UniProt Q9UN37); conditions: parent: est. 100; read off a plot
VPS4A/B [2] = molecular target: VPS4A/B (UniProt Q9UN37); conditions: parent: est. 100; read off a plot; remark: listed apart in the source

UniProt Q9UN37, sequence (Q9UN37 whole entry): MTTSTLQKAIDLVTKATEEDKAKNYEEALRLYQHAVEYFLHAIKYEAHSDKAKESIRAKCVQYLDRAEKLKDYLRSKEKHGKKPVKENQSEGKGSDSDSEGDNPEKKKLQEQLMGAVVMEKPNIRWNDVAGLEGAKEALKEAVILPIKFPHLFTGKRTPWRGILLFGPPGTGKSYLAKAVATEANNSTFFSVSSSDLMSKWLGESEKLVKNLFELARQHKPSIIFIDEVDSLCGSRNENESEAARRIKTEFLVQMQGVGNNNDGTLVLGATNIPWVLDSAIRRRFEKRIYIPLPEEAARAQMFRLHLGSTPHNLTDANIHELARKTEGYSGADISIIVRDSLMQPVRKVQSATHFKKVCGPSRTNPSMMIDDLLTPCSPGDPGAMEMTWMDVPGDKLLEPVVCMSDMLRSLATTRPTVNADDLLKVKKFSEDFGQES

LCMV Z WT with a C-terminal streptavidin binding peptide (SBP) tag (from UniProt P18541) K5R; K10R; K33R; K38R; K69R; K77R
percent of parent (VPS4A/B [1]): 24 % of WT
percent of parent (VPS4A/B [2]): 23 % of WT
